In the supplement of paper PMC10567573:

Test: protein stability index of a GFP-peptide fusion (GPS, HEK-293T) (PSI 1-6); higher = more stable
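Note: lentivirally expressed fusions sorted by FACS into six bins by GFP to DsRed ratio, PSI derived from sequencing read proportions per bin multiplied by bin number.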

FQGSMRIFTKKLPHPDLPAEEKEQ
protein stability index (parent: IOH45672_59, c terminus: a fixed tail appended): 2.02

QRITQEQEKKLSFIEALIQQYQEQ
protein stability index (parent: IOH45956_39, c terminus: a fixed tail appended): 2.31

RAGHHPNQYATCRLCGRQVSRGPG
protein stability index (parent: IOH45853_12, c terminus: a fixed tail appended): 2.02

CFITLTTIGFGDYVALQTKGALQK
protein stability index (parent: IOH45737_33, c terminus: a fixed tail appended): 2.94

TSSASVTTTSNASGRRTSDVRRP
protein stability index (parent: IOH51951_76, c terminus: native): 2.45

NWLGRPSKVLSLQDLCCRTIVSCT [RAB40A WT]
protein stability index (parent: IOH45721_31, c terminus: a fixed tail appended): 2.45

ANPYWTSRGSSVSMSGGRFRCPTC
protein stability index (parent: IOH45956_10, c terminus: a fixed tail appended): 1.99

FVYENAKEGARNIRTSERVTLIVD [BTBD10 WT]
protein stability index (parent: IOH43395_26, c terminus: a fixed tail appended): 1.94

GPHPKSKIENGYPLHAPEAYFPYF
protein stability index (parent: IOH46617_33, c terminus: a fixed tail appended): 2.25

FVEKNPTIVNFPITNVDLREYLSE
protein stability index (parent: IOH45672_78, c terminus: a fixed tail appended): 1.94

SPGHSSAGQEGEDTLRRRLLAPEA
protein stability index (parent: IOH51997_28, c terminus: a fixed tail appended): 4.18

YTGRAPNLDKMADNLLAAADKYAL
protein stability index (parent: IOH45687_44, c terminus: a fixed tail appended): 2.12

DYFPSEDFYRCGYCKNESGSRSNG
protein stability index (parent: IOH45551_3, c terminus: a fixed tail appended): 2.1

QVPVVDFQAELRQAFLAETPRGG [SNURF WT]
protein stability index (parent: IOH45840_9, c terminus: native): 2.99

YQDMIYAVGGRDDTTELSSAERYN [KLHL20 WT]
protein stability index (parent: IOH45628_85, c terminus: a fixed tail appended): 2.4

FRCPTCRHEVIMDRHGVYGLQRNL
protein stability index (parent: IOH45956_13, c terminus: a fixed tail appended): 1.95

VVGTPCYISPELCEGKPYNQKSDI
protein stability index (parent: IOH45357_28, c terminus: a fixed tail appended): 2.69

FHLAPARAGHHPNQYATCRLCGRQ
protein stability index (parent: IOH45853_11, c terminus: a fixed tail appended): 1.84

KASGRFGLLQGTSAETSGGLLICL [SEPHS2 WT]
protein stability index (parent: IOH46138_60, c terminus: a fixed tail appended): 2.7

SLARLQQLLFVIFLLLYLFTLGTN [OR10K2 WT]
protein stability index (parent: IOH46300_4, c terminus: a fixed tail appended): 2.15

ITDSYPVVKRREGPAGHSKGELAP [POLD4 WT]
protein stability index (parent: IOH45937_2, c terminus: a fixed tail appended): 2.96

TLSEAYIQIWKRRDNDETNQQGA
protein stability index (parent: IOH45672_93, c terminus: native): 2.22

YVQEKRDGLKRRQQLEEELLRAKI [RAD54B WT]
protein stability index (parent: IOH45968_20, c terminus: a fixed tail appended): 1.89

AKREETKAMESQRAYRFVQGKDWG
protein stability index (parent: IOH45687_19, c terminus: a fixed tail appended): 2.71

DGAGRTWQDSDTVKLLVDLELSYG
protein stability index (parent: IOH51997_56, c terminus: a fixed tail appended): 1.82

YGSFHQQYWLDGKIIAVGVIDILP
protein stability index (parent: IOH45551_57, c terminus: a fixed tail appended): 2.33

PDDKLTLFCEVSVVQDSVNISGHT
protein stability index (parent: IOH45687_26, c terminus: a fixed tail appended): 2.06

FASLRPSEPFLTPYLLGPDKNLTE
protein stability index (parent: IOH52104_8, c terminus: a fixed tail appended): 2

NWRYATGGWETVFRPVSETCTDRS
protein stability index (parent: IOH44218_42, c terminus: a fixed tail appended): 1.78

IYPVWTYSYLVLLFPVFLATDYLR
protein stability index (parent: IOH52104_13, c terminus: a fixed tail appended): 2.89

YAHQPRTADEIPMEPGDIIGVAGN
protein stability index (parent: IOH44218_86, c terminus: a fixed tail appended): 4.04

YTFGSNQHGQLGTNTRRGSRAPCK
protein stability index (parent: IOH45357_98, c terminus: a fixed tail appended): 3.79

FQFASIDVAGNLDYKALSYVITHG
protein stability index (parent: IOH44370_25, c terminus: a fixed tail appended): 2.42

YQQIKAGAYDFPSPEWDTVTPEAK [CAMK2B WT]
protein stability index (parent: IOH45432_38, c terminus: a fixed tail appended): 3.58

YPSYKVREKIETVKYPTYPEAEK
protein stability index (parent: IOH44218_94, c terminus: native): 4.2

YTSSQKVSPIQIDGAGRTWQDSDT
protein stability index (parent: IOH51997_54, c terminus: a fixed tail appended): 3.33

KLLVVDRTRRLGNMKNGANDVKHH [PRKX WT]
protein stability index (parent: IOH45425_47, c terminus: a fixed tail appended): 3.15

KTIEELRDKILTATIENNRVILEI
protein stability index (parent: IOH51951_27, c terminus: a fixed tail appended): 2.97

LWVQGDIFRSKLKNRPSSEGSINK
protein stability index (parent: IOH46617_56, c terminus: a fixed tail appended): 2.28

DVPDLQSVCSCTCYRSQDYGGRSV
protein stability index (parent: IOH45737_49, c terminus: a fixed tail appended): 1.8

YKYCDHENAAFKDVALVLTVLLEE
protein stability index (parent: IOH51997_64, c terminus: a fixed tail appended): 2.27

HHVADAYTSSQKVSPIQIDGAGRT
protein stability index (parent: IOH51997_53, c terminus: a fixed tail appended): 3.46

AGQEGEDTLRRRLLAPEAGSHPQQ
protein stability index (parent: IOH51997_29, c terminus: a fixed tail appended): 2.33

QEKKLSFIEALIQQYQEQLDKSTK
protein stability index (parent: IOH45956_40, c terminus: a fixed tail appended): 2.57

VTIKHVACGDFFTACLTDRGIIMT
protein stability index (parent: IOH45357_66, c terminus: a fixed tail appended): 2.6

FHHIPSTCQRVNGIKVQNGGIVTD
protein stability index (parent: IOH52104_37, c terminus: a fixed tail appended): 1.8

TPGIDLTRVLAEMREQYEAMAERN
protein stability index (parent: IOH51951_45, c terminus: a fixed tail appended): 3.68

YVRDRADLNKDKPVIPAAALAGYT
protein stability index (parent: IOH46473_52, c terminus: a fixed tail appended): 2.15

DVAGNLDYKALSYVITHGEEKEE
protein stability index (parent: IOH44370_26, c terminus: native): 2.21

LCKDCQVIDGRNVTVTDVDIVFSK [TPPP WT]
protein stability index (parent: IOH43477_14, c terminus: a fixed tail appended): 2.25

FSEPSFITESYQTLHPISSEELLS
protein stability index (parent: IOH46473_30, c terminus: a fixed tail appended): 1.94

LNLAMVYRYCCKLNKKLKSYSLSR
protein stability index (parent: IOH46617_10, c terminus: a fixed tail appended): 2.15

YGGGLGGGFGGGFAGGFVDFGACD
protein stability index (parent: IOH51951_13, c terminus: a fixed tail appended): 1.83
